Laboratory results: patent US20250361296A1 (BIOCYTOGEN PHARMACEUTICALS BEIJING, published 2025)

Legend:
[1] = molecular target: T1, human SIGLEC15 on CHO-S-hSIGLEC15 cells (human, UniProt Q6ZMC9 20-328); experiment: flow cytometry (MFI) on CHO-S-hSIGLEC15 cells; antibody sample: 40° C. 7 d
T1 sequence: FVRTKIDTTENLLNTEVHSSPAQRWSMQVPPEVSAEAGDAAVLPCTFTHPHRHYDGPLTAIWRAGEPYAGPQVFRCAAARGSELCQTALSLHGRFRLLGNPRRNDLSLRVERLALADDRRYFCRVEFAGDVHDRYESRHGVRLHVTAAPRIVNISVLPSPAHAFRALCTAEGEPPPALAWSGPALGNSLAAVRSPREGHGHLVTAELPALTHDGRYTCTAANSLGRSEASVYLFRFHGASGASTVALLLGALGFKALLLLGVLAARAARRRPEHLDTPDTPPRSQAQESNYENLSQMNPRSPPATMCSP
Description: (§1) In the activity detection experiment, 30 μL of CHO-S-hSIGLEC15 cells were added to the culture plate, and the antibody to be tested was added in a gradient dilution ([…]), and incubated at 4° C. for 30 min. The plate was washed with PBS, and diluted secondary antibody Anti-hIgG-Fc-Alex Flour 647 (RL1-H) (1:2000) was added, incubated at 4° C. for 30 min. The plate was washed once with PBS and the cells were resuspended for flow cytometry detection. MFI value was derived by FlowJo 7.6.1 analysis to calculate EC50.

[2] = molecular target: T1, human SIGLEC15 on CHO-S-hSIGLEC15 cells; experiment: flow cytometry (MFI) on CHO-S-hSIGLEC15 cells; antibody sample: 4° C. 7 d
Description: as §1

[3] = molecular target: T1, human SIGLEC15 on CHO-S-hSIGLEC15 cells; experiment: flow cytometry (MFI) on CHO-S-hSIGLEC15 cells; antibody sample: freeze 10
Description: as §1

[4] = molecular target: T1, human SIGLEC15 on CHO-S-hSIGLEC15 cells; experiment: flow cytometry (MFI) on CHO-S-hSIGLEC15 cells; antibody sample: pH 3.5 6 h
Description: as §1

[5] = molecular target: T1, human SIGLEC15 on CHO-S-hSIGLEC15 cells; experiment: flow cytometry (MFI) on CHO-S-hSIGLEC15 cells; antibody sample: 25° C. 7 d
Description: as §1

[6] = molecular target: T1, human SIGLEC15 on CHO-S-hSIGLEC15 cells; experiment: flow cytometry (MFI) on CHO-S-hSIGLEC15 cells; antibody sample: 0 d
Description: as §1

[7] = molecular target: T1, human SIGLEC15 on CHO-S-hSIGLEC15 cells; experiment: flow cytometry (MFI) on CHO-S-hSIGLEC15 cells; antibody sample: pH 3.5 0 h
Description: as §1

[8] = molecular target: T1, human SIGLEC15 on CHO-S-hSIGLEC15 cells; experiment: flow cytometry (MFI) on CHO-S-hSIGLEC15 cells; antibody sample: freeze 1
Description: as §1

EC50 [1]: 1.55 µg/mL
EC50 [2]: 1.63 µg/mL
EC50 [3]: 1.67 µg/mL
EC50 [4]: 2.05 µg/mL
EC50 [5]: 1.64 µg/mL
EC50 [6]: 1.79 µg/mL
EC50 [7]: 1.66 µg/mL
EC50 [8]: 1.46 µg/mL
B1: one-armed anti-SIGLEC15 antibody 10C9-S, human IgG1-N297A (antibody)
heavy: not shown
chain: DKTHTCPPCPAPELLGGPSVFLFPPKPKDTLMISRTPEVTCVVVDVSHEDPEVKFNWYVDGVEVHNAKTKPREEQYASTYRVVSVLTVLHQDWLNGKEYKCKVSNKALPAPIEKTISKAKGQPREPQVCTLPPSREEMTKNQVSLSCAVKGFYPSDIAVEWESNGQPENNYKTTPPVLDSDGSFFLVSKLTVDKSRWQQGNVFSCSVMHEALHNHYTQKSLSLSPGK
light: DIQLTQSPLSSPVTLGQPASISCRSSQSLVNSDGETFLSWLQQRPGQPPRLLIYKISNRFSGVPDRFSGSGAGTDFTLKISRVEAEDVGVYYCMQATQFPHTFGQGTKLEIKRTVAAPSVFIFPPSDEQLKSGTASVVCLLNNFYPREAKVQWKVDNALQSGNSQESVTEQDSKDSTYSLSSTLTLSKADYEKHKVYACEVTHQGLSSPVTKSFNRGEC
notes: One-armed format; It has a full-length heavy chain with the knob (T366W), a single Fc fragment with the hole mutations (T366S, L368A, Y407V), and a full-length light chain
